Read-outs that look alike come from different tables or passages of the source.
Assays:
[1] = target: HLA-DR1 (DRα1*0101/DRβ1*0101) refolded in the absence of peptide; assay: IC50 APL stability assay (peptide binding to DR1); details: read off a plot
[2] = target: HLA-DR1 (DRα1*0101/DRβ1*0101) with the influenza hemagglutinin peptide HA306-318 (human | influenza virus); assay: SPR
[3] = target: HLA-DR1 (DRα1*0101/DRβ1*0101) with the influenza hemagglutinin peptide HA306-318 (human | influenza virus); assay: SPR; remark: listed apart in the source
[4] = target: HLA-DR4 (DRα1*0101/DRβ1*0401) with the influenza hemagglutinin peptide HA306-318 (human | influenza virus); assay: SPR
[5] = target: HLA-DR1 (DRα1*0101/DRβ1*0101) with the influenza hemagglutinin peptide HA306-318 (human | influenza virus); assay: SPR; remark: listed apart in the source
[6] = target: HLA-DR4 (DRα1*0101/DRβ1*0401) with the influenza hemagglutinin peptide HA306-318 (human | influenza virus); assay: SPR; remark: listed apart in the source
[7] = target: HLA-DR4 (DRα1*0101/DRβ1*0401) with the influenza hemagglutinin peptide HA306-318 (human | influenza virus); assay: SPR; remark: listed apart in the source
[8] = target: HLA-DR1 (DRα1*0101/DRβ1*0101) with the influenza hemagglutinin peptide HA306-318 (human | influenza virus); assay: SPR; remark: listed apart in the source
[9] = target: HLA-DR4 (DRα1*0101/DRβ1*0401) with the influenza hemagglutinin peptide HA306-318 (human | influenza virus); assay: SPR; remark: listed apart in the source
[10] = target: HLA-DR4 (DRα1*0101/DRβ1*0401) with the influenza hemagglutinin peptide HA306-318 (human | influenza virus); assay: SPR; remark: listed apart in the source
[11] = target: HLA-DR1 (DRα1*0101/DRβ1*0101) with the influenza hemagglutinin peptide HA306-318 (human | influenza virus); assay: SPR; remark: listed apart in the source

## HA306-318 peptide (wild-type HA) N312F
[1]; parent: est. 12
  IC50: 0.006 µM

## HA1.7 TCR (soluble, extracellular variable and constant domains with an engineered disulphide link)
[2]
  Kd: 28 µM
[3]
  Kd: 36 µM
[4]
  Kd: 1270 µM
  dH: 16 kcal/mol
[5]
  Kd: 531 µM
  dH: 18 kcal/mol
[6]
  Kd: 291 µM
[7]
  Kd: 48 µM
[8]
  Kd: 204 µM
[9]
  Kd: 55 µM
[10]
  Kd: 89 µM
[11]
  Kd: 62 µM

## HA306-318 peptide (wild-type HA) N312Q
[1]; parent: est. 12
  IC50: 0.011 µM

## HA306-318 peptide (wild-type HA) Y308A
[1]; parent: est. 13
  IC50: 22 µM

## HA306-318 peptide (wild-type HA) K310V
[1]; parent: est. 12
  IC50: 0.01 µM

## HA306-318 peptide (wild-type HA) K307S
[1]; parent: est. 12
  IC50: 0.022 µM

## HA306-318 peptide (wild-type HA) K310F
[1]; parent: est. 12
  IC50: 0.008 µM

## HA306-318 peptide (wild-type HA) V309E
[1]; parent: est. 12
  IC50: 0.03 µM

## HA306-318 peptide (wild-type HA) V309R
[1]; parent: est. 12
  IC50: 0.021 µM

## HA306-318 peptide (wild-type HA) N312T
[1]; parent: est. 12
  IC50: 0.015 µM

## HA306-318 peptide (wild-type HA) K315H
[1]; parent: est. 12
  IC50: 0.013 µM

## HA306-318 peptide (wild-type HA) N312S
[1]; parent: est. 12
  IC50: 0.012 µM

## HA306-318 peptide (wild-type HA) N312K
[1]; parent: est. 12
  IC50: 0.018 µM

Source: publication PMC3432979
